The target in this experiment is SARS-CoV-2 RBD (residues V320 to G550, strain Wuhan-Hu-1), C-terminal His tag (SARS-CoV-2, UniProt P0DTC2). The experiment can be described thus: BLI. The conditions noted are these: both partners purified.

Usually Kd stands for the free concentration of one partner at which half of the binding sites on the other are occupied at equilibrium, for simple one-to-one binding. Higher therefore signals lower affinity.

Bounds are passed on as bounds.

B1: human-mouse chimeric antibody 3C1 (c3C1) (antibody, V domains shown)
VH: EVQLQESGPSLVKPSQTLSLTCSVTGDSITNGYWNWIRKFPGNKLEYMGYISYSGSTYYSPSLKSRISITRDTSKNQHYLQLNSVTSEDTATYYCASDYHGSKYYFDYWGQGTTLTVSS
VL: DIVMTQSHKFMSTSVGHRVSITCKASQDVGNDVAWYQQKPGQSPKLLIYWASTRHTGVPDRFTGSGSGTDFTLTISNVQSEDLADYFCQQYNRYPYTFGGGTKLEIK
notes: also called chimeric MAb c3C1
B1 came in with a Kd of less than 1 pM.

The record behind these values is PMC7801428 (Nature Communications, 2021).
